{"source": "patent US11161912B2", "about": "“Heparanase-neutralizing monoclonal antibodies” (Technion Research & Development Foundation Limited, priority 2015, dated 2021)", "molecules": {"B1": {"name": "mAb 9E8: monoclonal IgM raised against KKDC peptide (Lys158-Asn171) of heparanase; VH SEQ ID NO: 7, VL SEQ ID NO: 8 (antibody)", "VH": "EVKLLESGGGLVQPGGSLKLSCAASGFDFSRYWMSWVRQAPGKGLEWIGEINPDSSTINYTPSLKDKFIISRDNAKNTLYLQMSKVRSEDTALYYCARRGYEGNYAMDYWGQGTSVTVSSESQSFPNVFPLVSCESPLSDKNLVAMGCLAR", "VL": "DIVMTQAAPSVPVTPGESVSISCRSSKSLLHSNGNTYLYWFLQRPGQSPQLLIYRMSNLASGVPDRFSGSGSGTAFTLRISRVEAEDVGVYYCMQHLEYPFTFGSGTKLEIKRADAAPTVSIFPPSSEQLTSGGASVVCFL", "modifications": "IgM constant regions"}}, "key": {"heparanase": {"target": "T1, heparanase (Homo sapiens, UniProt Q9Y251)", "T1 sequence (Q9Y251 36-543)": "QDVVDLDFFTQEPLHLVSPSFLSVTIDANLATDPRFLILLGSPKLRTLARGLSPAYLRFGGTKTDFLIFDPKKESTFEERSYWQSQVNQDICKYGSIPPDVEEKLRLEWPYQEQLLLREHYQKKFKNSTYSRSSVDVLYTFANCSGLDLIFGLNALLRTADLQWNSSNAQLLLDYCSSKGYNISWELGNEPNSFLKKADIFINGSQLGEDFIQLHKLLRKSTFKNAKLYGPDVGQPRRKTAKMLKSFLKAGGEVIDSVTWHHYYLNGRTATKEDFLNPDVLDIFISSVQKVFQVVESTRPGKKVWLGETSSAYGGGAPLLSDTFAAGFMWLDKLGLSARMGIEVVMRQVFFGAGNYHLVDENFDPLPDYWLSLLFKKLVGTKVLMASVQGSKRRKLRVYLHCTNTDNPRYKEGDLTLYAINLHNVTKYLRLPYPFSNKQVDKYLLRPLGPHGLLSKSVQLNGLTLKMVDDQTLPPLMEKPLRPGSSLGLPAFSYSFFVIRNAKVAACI", "assay": "Intracellular heparanase content of heparanase-transfected 293 cells (immunofluorescence, immunoblot)", "type": "cell-based", "conditions": "cells over-expressing heparanase grown with mAb for two days", "protocol": "FIG. 3A. HEK 293 cells were incubated with latent 65 kDa (upper panel) or GS3 constitutively active heparanase (1 μg/ml; third panel) and the indicated mAbs (10 μg/ml). The cell medium was aspirated at the time designated and cell lysates were subjected to immunoblotting applying anti-heparanase antibody (upper and third panels). […] Heparanase-transfected 293 cells were grown with control mouse IgM or mAb 9E8 for two days. Cells were then fixed with methanol and subjected to immunofluorescent staining applying anti heparanase antibody (second panel) or lysed and subjected to immunoblotting applying anti-heparanase antibody (fourth panel). Purified recombinant active heparanase (200 ng) was pre-incubated with control mouse IgM ( ? ), mAb 8A5 ( ? ), mAb 9E8 ( ? ), all at 2 μg/ml, for 2 h in serum-free RPMI medium on ice. The mixture was then applied onto ^35S-labeled ECM-coated dishes and heparanase activity was determined as described above (lower panel). FIG. 3B, C. ESb mouse T-lymphoma cells (5×10^5) were inoculated subcutaneously in NOD/SCID mice (n=5) and treated with PG545 (20 mg/kg, once a week) (B) or the indicated mAb (500 μg/mouse every other day) (C). FIG. 3C. […] Quantification of the extent of CD45 staining is shown graphically in the lower panel. […]"}, "Raji-luciferase cells": {"tested_on": "Raji-luciferase cells", "assay": "Raji-luciferase lymphoma, tail vein inoculation, bone marrow growth by IVIS imaging", "type": "in vivo, human", "conditions": "mAb 600 μg/mouse every other day, IVIS", "protocol": "Tumorigenicity. Luciferase-labelled CAG myeloma (5×10^6) or Raji lymphoma (1×10^6) cells were injected into the tail vein of NOD/SCID mice (n=5). Mice were treated with PG545 (20 mg/kg, once weekly), mAb 9E8 (600 μg/mouse) every other day starting one day following cell inoculation and tumor growth was examined by IVIS imaging. At termination, mice were sacrificed, the backbones were excised, fixed in formalin and following de-calcification with 10% EDTA solution were embedded in paraffin and subjected to histological and immunohistochemical analyses essentially as described (Weissmann et al, 2016, Proc Natl Acad Sci USA 113:704-709). Dose of 25-30 mg/kg (i.e., 500-600 μg mAb/mouse) is typical in cancer restraining experiments (Van Looy T, et al. 2015, Transl Oncol 8(2):112-118).\nIVIS imaging. Bioluminescent imaging of the luciferase-expressing tumors was performed with a highly sensitive, cooled charge coupled device (CCD) camera mounted in a light-tight specimen box (IVIS; Xenogen Corp., Waltham, Mass.). Briefly, mice were injected intraperitoneally with D-luciferin substrate at 150 mg/kg, anesthetized and placed onto a stage inside the light-tight camera box, with continuous exposure to isoflurane (EZAnesthesia, Palmer, Pa.). Light emitted from the bioluminescent cells was detected by the IVIS camera system with images quantified for tumor burden using a log-scale color range set at 5×10^4 to 1×10^7 and measurement of total photon counts per second (PPS) using Living Image software (Xenogen) (Weissmann et al, 2016, Proc Natl Acad Sci USA 113:704-709).\nFIG. 4A. Raji-luciferase cells (1×10^6) were injected into the tail vein of NOD/SCID mice (n=5). Mice were treated with PG545 (20 mg/kg once a week) starting one day after cell inoculation and IVIS imaging was applied to quantify tumor load. […] NOD/SCID mice (n=5) were inoculated (iv) with Raji-luciferase cells and mice were treated with mAb 9E8 (600 μg/mouse every other day) (FIG. 4C) and tumor growth was evaluated by IVIS imaging (left panels). Quantification of luciferase signals is shown graphically in the right lower panel."}, "[1]": {"tested_on": "LM2-4 human breast carcinoma cells", "assay": "LM2-4 breast carcinoma experimental lung metastasis", "type": "in vivo", "conditions": "mAb 500 μg/mouse with the cells, lungs after 18 days", "protocol": "Experimental metastasis. B16 BL6 mouse melanoma (2×10^5) or LM2-4 human breast cancer cells (2×10^6) were injected into the tail vein of C57/BL mice or SCID/Beige mice (respectively) together with the indicated compound, essentially as described (Hostettler N, et al. 2007, FASEB J 21(13):3562-3572). Lungs were harvested 18 days thereafter and metastases occurrence was determined following fixation by gross inspection and histology (Weissmann et al, 2016, Proc Natl Acad Sci USA 113:704-709).\nFIG. 5A. Cell invasion. Cal-27 tongue carcinoma (left panels) and U87 glioma cells (right panels) (2×10^5) were plated onto Matrigel-coated filters in the presence of mouse IgM/IgG (upper panels), mAb 9E8 (2 μg; second left and middle panels). Invading cells adhering to the lower side of the membrane were visualized after 6 h. The number of invading cells per high power field is shown graphically at the lower panels. FIG. 5B, FIG. 5C. Tumor metastasis. FIG. 5B Mouse B16 melanoma cells (2×10^5) were inoculated into the tail vein of C57Bl/6 mice (n=7) together with rabbit IgG (300 μg; Con), Ab #1453 (250 μg), mAb 9E8 (500 μg) or SST0001 (400 μg). Lungs were harvested after 18 days, photographed (lower panel) and the number of metastatic lesions was counted (upper panel; p=0.001, 0.0006, 0.0001 for Con vs. Ab 1453, Con vs. mAb 9E8 and Con vs. SST0001, respectively). […]"}}}
{"molecule": "B1", "values": [{"measurement": "intracellular content of heparanase", "setting": "heparanase", "value": "marked decrease"}, {"measurement": "decrease of Raji cell growth (luciferase signal)", "setting": "Raji-luciferase cells", "value": "2-3 fold"}, {"measurement": "experimental lung metastasis", "setting": "[1]", "value": "inhibitory effect"}]}
